According to article PMC11417369, “DNA sequence and chromatin differentiate sequence-specific transcription factor binding in the human malaria parasite Plasmodium falciparum”:

Molecular target: T1, AP2-G D1 (Plasmodium falciparum, UniProt Q8I5I9 2123-2245)
T1 sequence: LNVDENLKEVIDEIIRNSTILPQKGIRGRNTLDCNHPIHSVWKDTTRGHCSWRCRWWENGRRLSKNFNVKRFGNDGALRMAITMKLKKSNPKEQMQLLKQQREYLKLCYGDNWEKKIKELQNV
Assay: gcPBM; about 25 ug protein; PBS, 1% milk, 0.2 mg/ml BSA, salmon testes DNA, 0.03% Triton X-100
Conditions: tags: N-terminal GST (pGEX-4T-1), kept; label: surface-attached array probe

B1: XGTACX_negctrl_site501 (dsDNA)
DNA 1: AAATTATAAAAAAAAAAAAAAAAAAAAAAAAAAAAA
DNA 2: TTTTTTTTTTTTTTTTTTTTTTTTTTTTTATAATTT
For B1, the binding signal was 9.83 ln median PBM intensity, better of two orientations.

B2: XGTACX_negctrl_site283 (dsDNA)
DNA 1: TACTAAAATATATATATGCAACATGAGATATTCAAC
DNA 2: GTTGAATATCTCATGTTGCATATATATATTTTAGTA
In the case of B2, the binding signal is reported as 9.82 ln median PBM intensity, better of two orientations.

B3: XGTACX_negctrl_site190 (dsDNA)
DNA 1: AATAGAAACATTTTACATGTATATATAATTTTTTTT
DNA 2: AAAAAAAATTATATATACATGTAAAATGTTTCTATT
For B3, the binding signal was 9.8 ln median PBM intensity, better of two orientations.

B4: XGTACX_negctrl_site448 (dsDNA)
DNA 1: ATATAAGATTACAAAAATTATGTGTAAATATTTAAT
DNA 2: ATTAAATATTTACACATAATTTTTGTAATCTTATAT
With B4 the binding signal was 9.81 ln median PBM intensity, better of two orientations.

B5: XGTACX_negctrl_site279 (dsDNA)
DNA 1: TTTTTACTATAAGGGGAAAAAAAAAAAAATAATATA
DNA 2: TATATTATTTTTTTTTTTTTCCCCTTATAGTAAAAA
B5 was tested, and the binding signal was 9.81 ln median PBM intensity, better of two orientations.

B6: XGTACX_negctrl_site183 (dsDNA)
DNA 1: TATTTTTCTTTTTAAAAATATATCACATGAACATTA
DNA 2: TAATGTTCATGTGATATATTTTTAAAAAGAAAAATA
In the case of B6, the binding signal is reported as 9.84 ln median PBM intensity, better of two orientations.

B7: XGTACX_negctrl_site546 (dsDNA)
DNA 1: AGCCCTTTTTTTTTTTAGAATATTGCATAATTATAT
DNA 2: ATATAATTATGCAATATTCTAAAAAAAAAAAGGGCT
In the case of B7, the binding signal is reported as 9.79 ln median PBM intensity, better of two orientations.

B8: XGTACX_negctrl_site14 (dsDNA)
DNA 1: AAATAAAAAGAAAAGAAAAAGAAAATAAAAAGAGAA
DNA 2: TTCTCTTTTTATTTTCTTTTTCTTTTCTTTTTATTT
B8 was tested, and the binding signal was 9.83 ln median PBM intensity, better of two orientations.

B9: XGTACX_negctrl_site160 (dsDNA)
DNA 1: ACATGCCAAAATCTAATACAATAATAATAAAAAAAA
DNA 2: TTTTTTTTATTATTATTGTATTAGATTTTGGCATGT
For B9, the binding signal was 9.83 ln median PBM intensity, better of two orientations.

B10: XGTACX_negctrl_site595 (dsDNA)
DNA 1: TTATATTATGTTCAATCAAAAATTATTTTTAAAAAA
DNA 2: TTTTTTAAAAATAATTTTTGATTGAACATAATATAA
For B10, the binding signal was 9.82 ln median PBM intensity, better of two orientations.

B11: XGTACX_negctrl_site26 (dsDNA)
DNA 1: TATAATTTTTTTGAATTATATATATATATATATAAT
DNA 2: ATTATATATATATATATATAATTCAAAAAAATTATA
With B11 the binding signal was 9.84 ln median PBM intensity, better of two orientations.

B12: XGTACX_negctrl_site395 (dsDNA)
DNA 1: TTATTAGAGATGTTAAGATATAGGGATAATTTCGAT
DNA 2: ATCGAAATTATCCCTATATCTTAACATCTCTAATAA
With B12 the binding signal was 9.76 ln median PBM intensity, better of two orientations.

B13: XGTACX_negctrl_site268 (dsDNA)
DNA 1: AAAACAAATTTTAATGAGAATATGAAAAAAAAATAT
DNA 2: ATATTTTTTTTTCATATTCTCATTAAAATTTGTTTT
B13 was tested, and the binding signal was 9.74 ln median PBM intensity, better of two orientations.

B14: XGTACX_negctrl_site39 (dsDNA)
DNA 1: TTTTTAATTATCTTTTCCCATGGTTTCTCCGTTTTT
DNA 2: AAAAACGGAGAAACCATGGGAAAAGATAATTAAAAA
B14 was tested, and the binding signal was 9.84 ln median PBM intensity, better of two orientations.

B15: XGTACX_negctrl_site572 (dsDNA)
DNA 1: TTAGGAAGCTCACAAAATAAAGTGAAAAGAAGAAAA
DNA 2: TTTTCTTCTTTTCACTTTATTTTGTGAGCTTCCTAA
B15 was tested, and the binding signal was 9.76 ln median PBM intensity, better of two orientations.

B16: XGTACX_negctrl_site88 (dsDNA)
DNA 1: AAGGGGAGAAAAATAAACGAAATATATACATACATA
DNA 2: TATGTATGTATATATTTCGTTTATTTTTCTCCCCTT
For B16, the binding signal was 9.83 ln median PBM intensity, better of two orientations.

B17: XGTACX_negctrl_site331 (dsDNA)
DNA 1: AAGGAATAAAATTTAGAAGACAATTTTATTTCAGTA
DNA 2: TACTGAAATAAAATTGTCTTCTAAATTTTATTCCTT
For B17, the binding signal was 9.81 ln median PBM intensity, better of two orientations.

B18: XGTACX_negctrl_site524 (dsDNA)
DNA 1: AAAACTATTAATGCAAAAAATAAAATATAATAATAA
DNA 2: TTATTATTATATTTTATTTTTTGCATTAATAGTTTT
With B18 the binding signal was 9.83 ln median PBM intensity, better of two orientations.

B19: XGTACX_negctrl_site66 (dsDNA)
DNA 1: TTTTGAGAAAAAATAAAATAATAAATAAAAATACAT
DNA 2: ATGTATTTTTATTTATTATTTTATTTTTTCTCAAAA
In the case of B19, the binding signal is reported as 9.8 ln median PBM intensity, better of two orientations.

B20: XGTACX_negctrl_site181 (dsDNA)
DNA 1: ATTCGTAGTTTTATGAATTAATATAATAAAAATTAA
DNA 2: TTAATTTTTATTATATTAATTCATAAAACTACGAAT
B20 was tested, and the binding signal was 9.77 ln median PBM intensity, better of two orientations.

B21: XGTACX_negctrl_site244 (dsDNA)
DNA 1: AAAAATATGAAGACACAATATAGAAATAAAAATATA
DNA 2: TATATTTTTATTTCTATATTGTGTCTTCATATTTTT
In the case of B21, the binding signal is reported as 9.84 ln median PBM intensity, better of two orientations.

B22: XGTACX_negctrl_site461 (dsDNA)
DNA 1: ATGAATTTTTCTCTACAAAAGGATATAATAAAAATA
DNA 2: TATTTTTATTATATCCTTTTGTAGAGAAAAATTCAT
B22 was tested, and the binding signal was 9.76 ln median PBM intensity, better of two orientations.

B23: XGTACX_negctrl_site421 (dsDNA)
DNA 1: TATAAGAGAAGAAGAAAAAAAAGGTTTCTATAGAAA
DNA 2: TTTCTATAGAAACCTTTTTTTTCTTCTTCTCTTATA
For B23, the binding signal was 9.78 ln median PBM intensity, better of two orientations.

B24: XGTACX_negctrl_site188 (dsDNA)
DNA 1: AAAGTATAACGGATACCATTTATGTGATTATTTTGT
DNA 2: ACAAAATAATCACATAAATGGTATCCGTTATACTTT
B24 was tested, and the binding signal was 9.78 ln median PBM intensity, better of two orientations.

B25: XGTACX_negctrl_site614 (dsDNA)
DNA 1: TAATTCGCAAAAGAAAGAAATTAAGAAAAAGAAAAA
DNA 2: TTTTTCTTTTTCTTAATTTCTTTCTTTTGCGAATTA
With B25 the binding signal was 9.81 ln median PBM intensity, better of two orientations.

B26: XGTACX_negctrl_site149 (dsDNA)
DNA 1: AGAATTTAGAAACAATGTTGTATATGTAATACCTTT
DNA 2: AAAGGTATTACATATACAACATTGTTTCTAAATTCT
B26 was tested, and the binding signal was 9.82 ln median PBM intensity, better of two orientations.

B27: XGTACX_negctrl_site600 (dsDNA)
DNA 1: TTGAAATATACGTAAGTAAATTTCATTTGGTTGTGT
DNA 2: ACACAACCAAATGAAATTTACTTACGTATATTTCAA
With B27 the binding signal was 9.84 ln median PBM intensity, better of two orientations.

B28: XGTACX_negctrl_site187 (dsDNA)
DNA 1: AATATATATATATATATATATATTTCAATATATAAA
DNA 2: TTTATATATTGAAATATATATATATATATATATATT
B28 was tested, and the binding signal was 9.75 ln median PBM intensity, better of two orientations.

B29: XGTACX_negctrl_site507 (dsDNA)
DNA 1: ATAAAAAATAAATATATACATACATACATACATATA
DNA 2: TATATGTATGTATGTATGTATATATTTATTTTTTAT
In the case of B29, the binding signal is reported as 9.8 ln median PBM intensity, better of two orientations.

B30: XGTACX_negctrl_site200 (dsDNA)
DNA 1: GTCCTTATGGATGATAAATTATTTTAAATATTCTAT
DNA 2: ATAGAATATTTAAAATAATTTATCATCCATAAGGAC
B30 was tested, and the binding signal was 9.79 ln median PBM intensity, better of two orientations.

B31: XGTACX_negctrl_site224 (dsDNA)
DNA 1: TTGTTTCTTAAATTATTTATTTTATATTAAAAAAAA
DNA 2: TTTTTTTTAATATAAAATAAATAATTTAAGAAACAA
In the case of B31, the binding signal is reported as 9.8 ln median PBM intensity, better of two orientations.

B32: XGTACX_negctrl_site277 (dsDNA)
DNA 1: TTATTTTACTTTTATGCAACTAAAAATATTGCTATA
DNA 2: TATAGCAATATTTTTAGTTGCATAAAAGTAAAATAA
With B32 the binding signal was 9.82 ln median PBM intensity, better of two orientations.
